Results as given in patent US20250270332A1 (ANTLERA THERAPEUTICS, published 2025).

Molecular target: T1, FZD4 recombinant extracellular domain, Fc fusion (FZD-Fc) (UniProt Q9ULV1 37-180)
T1 construct: extracellular domain; also called FZD4 ECD; not shown: Fc part of the FZD-Fc protein
T1 sequence (looked up): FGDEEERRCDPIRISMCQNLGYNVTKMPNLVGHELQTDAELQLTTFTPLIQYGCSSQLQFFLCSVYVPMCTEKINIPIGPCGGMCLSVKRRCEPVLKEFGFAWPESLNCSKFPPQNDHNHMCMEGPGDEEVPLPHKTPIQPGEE
Experiment: BLI (Octet), FZD-Fc captured on AHQ sensors, agonist in solution; apparent affinity

B1: FZD4 Agonist ANT39 (bispecific antibody, human IgG1, kappa, N297G)
heavy 1: EVQLVESGGGLVQPGGSLRLSCAASGFDFTAYAMHWVRQAPGKGLEWVASIYPSGGYTAYADSVKGRFTISADTSKNTAYLQMNSLRAEDTAVYYCARRSYYFALDYWGQGTLVTVSSGGGGSDIQMTQSPSSLSASVGDRVTITCRASQSVSSAVAWYQQKPGKAPKLLIYSASSLYSGVPSRFSGSRSGTDFTLTISSLQPEDFATYYCQQYWAYYSPITFGQGTKVEIKGGGGSGGGGSEPKTSDKTHTCPPCPAPELLGGPSVFLFPPKPKDTLMISRTPEVTCVVVAVSHEDPEVKFNWYVDGVEVHNAKTKPREEQYGSTYRVVSVLTVLHQDWLNGKEYKCKVSNKALPAPIEKTISKAKGQPREPMVFDLPPSREEMTKNQVSLWCMVKGFYPSDIAVEWESNGQPENNYKTTPPVLDSDGSFFLYSKLTVDKSRWQQGNVFSCSVMHEALHNHYTQKSLSLSPGKGGGSGGGSGGGSGGGSGSTGEVQLVESGGGLVQPGGSLRLSCAASGFTLSSYSMHWVRQAPGKGLEWVAYISSYDSITDYADSVKGRFTISADTSKNTAYLQMNSLRAEDTAVYYCARPAVGHMAFDYWGQGTLVTVSSASTKGPSVFPLAPSSKSTSGGTAALGCLVKDYFPEPVTVSWNSGALTSGVHTFPAVLQSSGLYSLSSVVTVPSSSLGTQTYICNVNHKPSNTKVDKKVEPKSCDKTHT
heavy 2: EVQLVESGGGLVQPGGSLRLSCAASGFDFSSSSIHWVRQAPGKGLEWVASISSSYGYTYYADSVKGRFTISADTSKNTAYLQMNSLRAEDTAVYYCARSWAMDYWGQGTLVTVSSGGGGSDIQMTQSPSSLSASVGDRVTITCRASQSVSSAVAWYQQKPGKAPKLLIYSASDLYSGVPSRFSGSRSGTDFTLTISSLQPEDFATYYCQQYAGAGLITFGQGTKVEIKGGGGSGGGGSEPKSSDKTHTCPPCPAPELLGGPSVFLFPPKPKDTLMISRTPEVTCVVVAVSHEDPEVKFNWYVDGVEVHNAKTKPREEQYGSTYRVVSVLTVLHQDWLNGKEYKCKVSNKALPAPIEKTISKAKGQPREPQVYTLPPIRELMTSNQVSLSCAVKGFYPSDIAVEWESNGQPENNYKTTPPVLDSDGSFFLVSKLTVDKSRWQQGNVFSCSVMHEALHNHYTQKSLSLSPGKGGGSGGGSGGGSGGGSGSTGEVQLVESGGGLVQPGGSLRLSCAASGFTLSSYSMHWVRQAPGKGLEWVAYISSYDSITDYADSVKGRFTISADTSKNTAYLQMNSLRAEDTAVYYCARPAVGHMAFDYWGQGTLVTVSSASTKGPSVFPLAPSSKSTSGGTAALGCLVKDYFPEPVTVSWNSGALTSGVHTFPAVLQSSGLYSLSSVVTVPSSSLGTQTYICNVNHKPSNTKVDKKVEPKSCDKTHT
light: DIQMTQSPSSLSASVGDRVTITCRASQSVSSAVAWYQQKPGKAPKLLIYSASSLYSGVPSRFSGSRSGTDFTLTISSLQPEDFATYYCQQWYNAPITFGQGTKVEIKRTVAAPSVFIFPPSDEQLKSGTASVVCLLNNFYPREAKVQWKVDNALQSGNSQESVTEQDSKDSTYSLSSTLTLSKADYEKHKVYACEVTHQGLSSPVTKSFNRGEC
notes: Diabody-Fc-Fab format, DANG Fc
Kd: 0.3 nM
